Patent US9549967B2, “Regulation of sodium channels by PLUNC proteins” (The University of North Carolina at Chapel Hill, priority 2009, dated 2017)

Experiments:
[1] = target: T1, ENaC (Homo sapiens, UniProt P37088+P51168+P51170); assay: Transepithelial electrical resistance of human bronchial epithelial cultures (EVOM); type: cell-based; settings: washed cultures; 50 ng/ml SPLUNC1 for 30 min or amiloride; effects not additive
T1 construct: endogenous in cells; host or cells: primary human bronchial epithelial cultures
T1 sequence (P37088 1-669): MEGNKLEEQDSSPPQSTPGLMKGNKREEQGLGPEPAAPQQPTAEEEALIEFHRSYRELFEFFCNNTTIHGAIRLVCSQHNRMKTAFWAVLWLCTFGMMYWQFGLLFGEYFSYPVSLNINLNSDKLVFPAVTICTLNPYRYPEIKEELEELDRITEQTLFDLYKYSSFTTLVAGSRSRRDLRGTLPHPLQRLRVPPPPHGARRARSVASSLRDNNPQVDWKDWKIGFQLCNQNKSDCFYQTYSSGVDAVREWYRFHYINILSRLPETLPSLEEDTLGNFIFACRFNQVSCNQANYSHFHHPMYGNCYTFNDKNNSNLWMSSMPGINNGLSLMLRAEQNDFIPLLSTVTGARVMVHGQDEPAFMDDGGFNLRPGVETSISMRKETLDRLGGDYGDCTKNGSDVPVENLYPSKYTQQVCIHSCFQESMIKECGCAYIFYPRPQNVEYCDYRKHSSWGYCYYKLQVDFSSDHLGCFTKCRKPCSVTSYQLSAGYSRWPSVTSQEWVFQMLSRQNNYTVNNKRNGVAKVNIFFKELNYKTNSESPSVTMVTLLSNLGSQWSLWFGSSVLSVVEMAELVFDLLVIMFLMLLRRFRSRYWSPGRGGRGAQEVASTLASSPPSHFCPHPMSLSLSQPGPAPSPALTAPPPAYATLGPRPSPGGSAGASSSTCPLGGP
T1 sequence (P51168 1-640): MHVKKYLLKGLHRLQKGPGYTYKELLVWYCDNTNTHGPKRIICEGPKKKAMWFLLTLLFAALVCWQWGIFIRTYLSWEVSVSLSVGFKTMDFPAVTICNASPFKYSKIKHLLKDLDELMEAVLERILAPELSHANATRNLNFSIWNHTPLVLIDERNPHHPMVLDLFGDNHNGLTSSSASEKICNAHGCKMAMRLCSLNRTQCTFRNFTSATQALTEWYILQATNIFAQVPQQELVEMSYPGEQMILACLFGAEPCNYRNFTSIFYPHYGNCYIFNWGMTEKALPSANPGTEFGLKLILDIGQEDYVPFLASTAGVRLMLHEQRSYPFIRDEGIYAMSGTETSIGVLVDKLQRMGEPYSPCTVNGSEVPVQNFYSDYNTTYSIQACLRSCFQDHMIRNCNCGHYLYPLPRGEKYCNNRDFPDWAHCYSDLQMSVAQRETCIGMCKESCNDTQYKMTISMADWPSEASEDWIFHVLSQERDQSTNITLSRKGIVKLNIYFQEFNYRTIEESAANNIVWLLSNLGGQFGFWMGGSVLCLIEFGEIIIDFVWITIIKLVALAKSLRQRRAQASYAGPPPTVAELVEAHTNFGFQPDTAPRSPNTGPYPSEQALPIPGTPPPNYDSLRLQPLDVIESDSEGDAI
T1 sequence (P51170 1-649): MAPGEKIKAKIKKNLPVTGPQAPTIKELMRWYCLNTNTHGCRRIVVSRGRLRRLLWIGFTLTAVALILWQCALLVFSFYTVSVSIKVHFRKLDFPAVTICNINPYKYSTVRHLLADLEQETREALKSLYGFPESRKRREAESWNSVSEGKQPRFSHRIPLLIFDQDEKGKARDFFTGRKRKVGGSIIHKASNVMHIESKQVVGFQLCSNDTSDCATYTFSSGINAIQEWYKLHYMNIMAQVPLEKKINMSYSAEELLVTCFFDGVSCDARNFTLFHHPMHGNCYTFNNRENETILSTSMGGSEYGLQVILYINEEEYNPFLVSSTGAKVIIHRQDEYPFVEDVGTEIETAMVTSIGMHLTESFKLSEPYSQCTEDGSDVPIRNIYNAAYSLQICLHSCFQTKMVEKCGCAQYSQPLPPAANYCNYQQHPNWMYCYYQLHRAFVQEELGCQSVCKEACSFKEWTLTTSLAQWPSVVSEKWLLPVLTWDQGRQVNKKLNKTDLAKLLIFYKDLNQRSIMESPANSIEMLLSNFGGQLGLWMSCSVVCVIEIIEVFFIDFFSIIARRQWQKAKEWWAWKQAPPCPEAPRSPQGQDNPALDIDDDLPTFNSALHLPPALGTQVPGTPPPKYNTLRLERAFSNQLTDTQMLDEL
Excerpt: Tissue procurement and cell culture: Cells were harvested by enzymatic digestion from human bronchial tissue as previously described under a protocol approved by the UNC School of Medicine IRB (Tarran et al., J. Gen. Physiol. 127:591 (2006)). Human excess donor lungs and excised recipient lungs were obtained at the time of lung transplantation from portions of main stem or […] bronchi and cells were harvested by enzymatic digestion. All preparations were maintained at an air-liquid interface in a modified bronchial epithelial medium and used 2-5 weeks after seeding on 12 mm T-Clear inserts (Corning Costar) coated with human placental type VI collagen (Sigma). Phosphate buffered saline (PBS) was used for washing human bronchial epithelial culture mucosal surfaces.
Microelectrode studies. A single-barreled potential difference-sensing electrode was placed in the airway surface liquid by micromanipulator and used in conjunction with a macroelectrode in the serosal solution to measure transepithelial voltage using a voltmeter (World Precision Instruments). […] Transepithelial resistance was routinely measured using the EVOM system (WPI) as previously described (Tarran et al., J. Gen. Physiol. 127:591 (2006)).

[2] = system: trypsin; assay: Cell-free fluorogenic assay of BGAR-MCA cleavage by trypsin; type: biochemical; settings: 50 ng/ml rSPLUNC1; 1.0 or 0.3 U/ml trypsin
Protocol: For cell-free assays, reactions were carried out in 50 μl Ringer in a 96 well plate format with 100 μM BGAR-MCA. To measure endogenous protease activity in human bronchial epithelial cultures, 30 μl Ringer with 100 μM BGAR-MCA were placed directly onto the mucosal surfaces of human bronchial epithelial cultures grown on 12 mm T-clear inserts and the cultures were assayed in 12 well plates.

B1: SPLUNC1: human SPLUNC1, 256 amino acid secreted PLUNC protein (SEQ ID NO:1); rSPLUNC1 = V5/6His-tagged protein purified from HEK293 media (protein, listed as Homo sapiens)
chain: MFQTGGLIVFYGLLAQTMAQFGGLPVPLDQTLPLNVNPALPLSPTGLAGSLTNALSNGLLSGGLLGILENLPLLDILKPGGGTSGGLLGGLLGKVTSVIPGLNNIIDIKVTDPQLLELGLVQSPDGHRLYVTIPLGIKLQVNTPLVGASLLRLAVKLDITAEILAVRDKQERIHLVLGDCTHSPGSLQISLLDGLGPLPIQGLLDSLTGILNKVLPELVQGNVCPLVNEVLRGLDITLVHDIVNMLIHGLQFVIKV
modifications: V5/6His tag
notes: rSPLUNC1 = V5/6His-tagged protein purified from HEK293 media
[1]
  increase of the transepithelial electrical resistance: ~33%
[2]
  effect on the ability of trypsin to cleave fluorogenic substrate BGAR-MCA: ~10%
